The values below come from patent US10428140B2, “Anti-EphA4 antibody” (EISAI R&D MANAGEMENT CO., LTD., priority 2015, dated 2019).

In one assay the target is T1, human EphB1 (Homo sapiens, UniProt P54762).
T1 construct: a protein of the extracellular region of each human Eph receptor fused with the SEAP protein and the His tag; made in house; host or cells: Expi293F cells (culture supernatant)
T1 sequence (P54762 18-540 limits assumed): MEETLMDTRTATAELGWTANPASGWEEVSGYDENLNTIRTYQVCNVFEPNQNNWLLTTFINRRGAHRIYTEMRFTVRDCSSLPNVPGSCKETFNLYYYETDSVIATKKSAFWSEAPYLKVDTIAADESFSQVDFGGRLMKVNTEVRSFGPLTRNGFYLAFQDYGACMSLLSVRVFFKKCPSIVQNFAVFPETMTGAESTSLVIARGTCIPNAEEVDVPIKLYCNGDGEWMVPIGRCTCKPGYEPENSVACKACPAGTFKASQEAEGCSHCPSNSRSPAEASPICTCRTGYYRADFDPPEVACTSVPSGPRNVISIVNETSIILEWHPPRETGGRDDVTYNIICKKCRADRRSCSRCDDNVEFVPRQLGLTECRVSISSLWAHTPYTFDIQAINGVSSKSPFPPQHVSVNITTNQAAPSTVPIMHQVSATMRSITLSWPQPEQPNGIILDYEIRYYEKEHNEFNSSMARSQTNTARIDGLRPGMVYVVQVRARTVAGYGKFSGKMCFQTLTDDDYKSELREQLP
Put plainly: Selectivity ELISA of humanized antibodies for human Eph receptor. The format is binding. As to conditions: coated protein 1 nM. The text has this: (§1) According to the method described in Example 7, a DNA sequence encoding the signal sequence and the extracellular region of each human Eph receptor (EphA1, EphA2, EphA3, EphA4, EphA5, EphA6, EphA7, EphA8, EphA10, EphB1, EphB2, EphB3, EphB4, and EphB6) was amplified by RT-PCR using tissue-derived total RNA and cloned into a pENTR1A vector (Invitrogen/Life Technologies) having a DNA sequence encoding SEAP protein and histidine tag. Next, the DNA sequence encoding the signal sequence and the extracellular region of each human Eph receptor, SEAP protein, and histidine tag was transferred to a pcDNA3.1_rfcB vector through LR reaction using Gateway System (Invitrogen/Life Technologies) to construct a vector for the expression of a protein of the extracellular region of each human Eph receptor fused with the SEAP protein and the His tag (referred to as “Eph receptor extracellular region-SEAP-His protein”) (this vector is referred to as “Eph receptor extracellular region-SEAP-His protein expression vector”).
(§2) Next, each human Eph receptor extracellular region-SEAP-His protein expression vector was transferred to Expi293F cells (Gibco/Thermo Fisher Scientific) using Expi293 expression system (Gibco/Thermo Fisher Scientific). After incubation (5% CO2, 37° C.) for 5 days, the culture supernatant was recovered and centrifuged at 1500 rpm at room temperature for 5 minutes. The centrifugation supernatant was filtered through a 0.45-μm filter (Merck Millipore).
(§3) Each anti-EphA4 monoclonal humanized antibody obtained in Example 16 was evaluated for its binding activity against each human Eph receptor according to the following steps.
(§4) Each well of a 96-well plate (Nunc) was coated with a rabbit anti-6-His antibody (Bethyl Laboratories). Each well was […] After washing with 0.05% Tween 20/PBS (Nacalai Tesque) three times, the SEAP-His protein of human EphA1, EphA2, EphA3, EphA4, EphA5, EphA6, EphA7, EphA8, EphA10, EphB1, EphB2, EphB3, EphB4, or EphB6 was added (final concentration: 1 nM) to each well and incubated at room temperature for 1 hour. After washing three times, the humanized antibody was added to each well and incubated at room temperature for 1 hour. After washing three times, a horseradish peroxidase-labeled donkey […] IgG antibody (Jackson ImmunoResearch Laboratories) was added thereto and incubated at room temperature for 1 hour. After washing three times, TMB Microwell Peroxidase Substrate System (Kirkegaard & Perry Laboratories (KPL)) was added to each well. After confirmation of moderate color development, an equal amount of a reaction stopping solution (1N H2SO4, Wako Pure Chemical Industries) was added to each well. The absorbance at 450 nm was read using a microplate reader (Thermo Fisher Scientific).

The target in a further assay is T2, human EphA6 (Homo sapiens, UniProt Q9UF33).
T2 construct: a protein of the extracellular region of each human Eph receptor fused with the SEAP protein and the His tag; made in house; host or cells: Expi293F cells (culture supernatant)
T2 sequence (Q9UF33 23-550 limits assumed): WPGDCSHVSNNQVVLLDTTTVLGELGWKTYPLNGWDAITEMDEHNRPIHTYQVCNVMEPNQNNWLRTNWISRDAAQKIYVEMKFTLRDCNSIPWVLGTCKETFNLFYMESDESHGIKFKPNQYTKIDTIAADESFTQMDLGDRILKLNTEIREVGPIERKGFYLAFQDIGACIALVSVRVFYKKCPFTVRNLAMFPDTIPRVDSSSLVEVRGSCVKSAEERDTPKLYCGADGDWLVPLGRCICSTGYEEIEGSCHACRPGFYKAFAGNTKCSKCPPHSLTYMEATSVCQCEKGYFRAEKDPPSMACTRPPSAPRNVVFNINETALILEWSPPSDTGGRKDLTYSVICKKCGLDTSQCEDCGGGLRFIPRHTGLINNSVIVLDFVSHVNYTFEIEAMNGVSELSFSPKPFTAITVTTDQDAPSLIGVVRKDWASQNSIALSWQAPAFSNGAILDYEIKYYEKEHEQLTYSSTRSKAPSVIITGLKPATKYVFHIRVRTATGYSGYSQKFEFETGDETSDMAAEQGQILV
Described as above. It is filed as binding. Particulars: coated protein 1 nM.
From the text: as §1, §2, §3, §4

Assay [1] addresses T3, human EphA4 (binding to human Ephrin A5) (Homo sapiens, UniProt P54764).
T3 construct: made in house; not restated for the human SEAP-His protein
The experiment in a line: Human EphA4-human ligand binding inhibition ELISA of humanized antibodies (biotinylated Ephrin A5-Fc). Particulars: biotinylated human Ephrin A5-Fc 0.7 nM. The method, then:
Each anti-EphA4 monoclonal humanized antibody obtained in Example 16 was evaluated for its inhibitory activity against the binding between human EphA4 and its human ligand according to the following steps. Each well of a 96-well plate (Nunc) was coated with an anti-alkaline phosphatase antibody (Thermo Fisher Scientific). After incubation overnight at 4° C., each well was blocked with 1% BlockAce (DS Pharma Biomedical) at room temperature for 1 hour. After washing with 0.05% Tween 20/PBS (Thermo Fisher Scientific) three times, the human EphA4 extracellular region-SEAP-His protein obtained by the method of Example 2 was added (final concentration: 10 nM) to each well and incubated at room temperature for 1 hour. After washing three times, a ligand and each serially diluted humanized antibody of antibody A (0, 0.003, 0.01, 0.03, 0.1, 0.3, 1, 3, 10, 30, 100, 300, 1000, and 3000 nM) were added to each well. The ligand used was biotinylated human Ephrin A5-Fc chimera (R&D Systems, final concentration: 0.7 nM). After incubation at room temperature for 1 hour and subsequent washing three times, horseradish peroxidase-labeled streptavidin (GE Healthcare) was added thereto and incubated at room temperature for 1 hour. After washing three times, a TMBZ (3,3′,5,5′-tetramethylbenzidine, Sigma-Aldrich) solution was added to each well and incubated at room temperature for 2 minutes. An equal amount of a reaction stopping solution (1N H2SO4, Wako Pure Chemical Industries) was added to each well. The absorbance at 450 nm was read using a microplate reader (PerkinElmer).
Background: ELISA stands for enzyme-linked immunosorbent assay.

T3 sequence (P54764 20-547): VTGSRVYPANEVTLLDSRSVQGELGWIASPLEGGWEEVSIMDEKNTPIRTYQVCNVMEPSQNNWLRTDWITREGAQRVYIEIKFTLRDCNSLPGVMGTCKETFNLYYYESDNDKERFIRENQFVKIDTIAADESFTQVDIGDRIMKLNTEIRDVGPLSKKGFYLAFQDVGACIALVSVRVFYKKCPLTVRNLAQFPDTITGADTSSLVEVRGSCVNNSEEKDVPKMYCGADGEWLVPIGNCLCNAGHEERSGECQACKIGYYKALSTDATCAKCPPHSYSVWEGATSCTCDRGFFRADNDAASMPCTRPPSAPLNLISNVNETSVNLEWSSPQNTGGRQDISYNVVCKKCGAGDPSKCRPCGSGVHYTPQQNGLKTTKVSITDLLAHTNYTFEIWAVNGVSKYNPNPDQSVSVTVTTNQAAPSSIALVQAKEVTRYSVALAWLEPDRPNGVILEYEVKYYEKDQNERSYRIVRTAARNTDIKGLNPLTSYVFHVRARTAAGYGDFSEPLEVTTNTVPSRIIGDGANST

B1: 94 (antibody, V domains shown)
VL: EIVMTQSPATLSVSPGERATLSCRASENIYRNLAWYQQKPGQSPRLLIYAATNLADGIPARFSGSGSGTEYTLTISSLQSEDFAVYYCQHFWGTPWTFGQGTKVEIK
VH: QVQLVQSGSELKKPGASVKVSCKASGYTFTDYSMHWVRQAPGQGLKWMGWINTETGEPTYAQGFTGRFVFSLDTSVSTAYLQISSLKAEDTAVYYCARIPLYYYGSRYWYFDVWGQGTTVTVSS
modifications: constant regions without entry; synthetic humanized antibody light chain variable region sequence; synthetic humanized antibody heavy chain variable region sequence
Turning to B1, the “hEphB1-SEAP-: absorbance at 450 nm, percentage with respect to hEphA4-SEAP-His as 100%” value with human EphB1 came out at 6.7%. The “hEphA6-SEAP-: absorbance at 450 nm, percentage with respect to hEphA4-SEAP-His as 100%” value with human EphA6 is on record as 8.6%. In addition, the half-inhibitory concentration (IC50) (commonly the concentration that gives 50% inhibition) in assay [1] came out at 2.7 nM.

B2: 96 (antibody, V domains shown)
VL: EIVMTQSPATLSVSPGERATLSCRASENIYRNLAWYQQKPGQSPRLLIYAATNLADGIPARFSGSGSGTEYTLTISSLQSEDFAVYYCQHFWGTPWTFGQGTKVEIK
VH: QVQLVQSGSELKKPGASVKVSCKASGYTFTDYSMHWVRQAPGQGLKWMGWINTETGEPTYADDFKGRFVFSLDTSVSTAYLQISSLKAEDTAVYYCARIPLYYYGSRYWYFDVWGQGTTVTVSS
modifications: constant regions without entry; synthetic humanized antibody light chain variable region sequence; synthetic humanized antibody heavy chain variable region sequence
Take B2: the “hEphB1-SEAP-: absorbance at 450 nm, percentage with respect to hEphA4-SEAP-His as 100%” value in the assay with human EphB1 worked out at 5.6%. Moreover, in the assay with human EphA6, the “hEphA6-SEAP-: absorbance at 450 nm, percentage with respect to hEphA4-SEAP-His as 100%” value turned out to be 9.8%. Further, the concentration for half-maximal inhibition (IC50) in assay [1] was determined as 3.7 nM.

B3: 95 (antibody, V domains shown)
VL: EIVMTQSPATLSVSPGERATLSCRASENIYRNLAWYQQKPGQSPRLLIYAATNLADGIPARFSGSGSGTEYTLTISSLQSEDFAVYYCQHFWGTPWTFGQGTKVEIK
VH: QVQLVQSGSELKKPGASVKVSCKASGYTFTDYSMHWVRQAPGQGLEWMGWINTETGEPTYADDFKGRFVFSLDTSVSTAYLQISSLKAEDTAVYYCARIPLYYYGSRYWYFDVWGQGTTVTVSS
modifications: constant regions without entry; synthetic humanized antibody light chain variable region sequence; synthetic humanized antibody heavy chain variable region sequence
Take B3: in the assay with human EphB1, the “hEphB1-SEAP-: absorbance at 450 nm, percentage with respect to hEphA4-SEAP-His as 100%” value is 4.6%. The “hEphA6-SEAP-: absorbance at 450 nm, percentage with respect to hEphA4-SEAP-His as 100%” value with human EphA6 is listed as 7.0%. In assay [1], the IC50 was 3.1 nM.

B4: 73 (antibody, V domains shown)
VH: QIQLVQSGSELKKPGASVKVSCKASGYTFTDYSMHWVRQAPGQGLKWMGWINTETGEPTYADDFKGRFVFSLDTSVSTAYLQISSLKAEDTAVYYCARIPLYYYGSRYWYFDVWGQGTTVTVSS
VL: EIVMTQSPATLSVSPGERATLSCRASENIYRNLAWYQQKPGQSPRLLIYAATNLADGIPARFSGSGSGTEYTLTISSLQSEDFAVYYCQHFWGTPWTFGQGTKVEIK
modifications: synthetic humanized antibody heavy chain variable region sequence; synthetic humanized antibody light chain variable region sequence
B4: the “hEphB1-SEAP-: absorbance at 450 nm, percentage with respect to hEphA4-SEAP-His as 100%” value with human EphB1 is given as 5.7%. In addition, the “hEphA6-SEAP-: absorbance at 450 nm, percentage with respect to hEphA4-SEAP-His as 100%” value with human EphA6 is listed as 7.4%. Further, in assay [1], the half-maximal inhibitory concentration (IC50) is 2.4 nM.

B5: 71 (antibody, V domains shown)
VH: QIQLVQSGSELKKPGASVKVSCKASGYTFTDYSMHWVRQAPGQGLKWMGWINTETGEPTYAQGFTGRFVFSLDTSVSTAYLQISSLKAEDTAVYYCARIPLYYYGSRYWYFDVWGQGTTVTVSS
VL: EIVMTQSPATLSVSPGERATLSCRASENIYRNLAWYQQKPGQSPRLLIYAATNLADGIPARFSGSGSGTEYTLTISSLQSEDFAVYYCQHFWGTPWTFGQGTKVEIK
modifications: synthetic humanized antibody heavy chain variable region sequence; synthetic humanized antibody light chain variable region sequence
On to B5, for which the “hEphB1-SEAP-: absorbance at 450 nm, percentage with respect to hEphA4-SEAP-His as 100%” value with human EphB1 is given as 5.4%. Moreover, the “hEphA6-SEAP-: absorbance at 450 nm, percentage with respect to hEphA4-SEAP-His as 100%” value with human EphA6 is listed as 9.2%. This molecule also registered a half-inhibitory concentration (IC50) in assay [1] of 2.5 nM.
